The labels stand for the following.
B1: Rad50 (S. cerevisiae, FLAG-tagged at the C terminus) [S. cerevisiae] / MBP-Rif2 (S. cerevisiae Rif2, wild type) [S. cerevisiae] (parent complex)
chain 1: MSAIYKLSIQGIRSFDSNDRETIEFGKPLTLIVGMNGSGKTTIIECLKYATTGDLPPNSKGGVFIHDPKITGEKDIRAQVKLAFTSANGLNMIVTRNIQLLMKKTTTTFKTLEGQLVAINNSGDRSTLSTRSLELDAQVPLYLGVPKAILEYVIFCHQEDSLWPLSEPSNLKKKFDEIFQAMKFTKALDNLKSIKKDMSVDIKLLKQSVEHLKLDKDRSKAMKLNIHQLQTKIDQYNEEVSEIESQLNEITEKSDKLFKSNQDFQKILSKVENLKNTKLSISDQVKRLSNSIDILDLSKPDLQNLLANFSKVLMDKNNQLRDLETDISSLKDRQSSLQSLSNSLIRRQGELEAGKETYEKNRNHLSSLKEAFQHKFQGLSNIENSDMAQVNHEMSQFKAFISQDLTDTIDQFAKDIQLKETNLSDLIKSITVDSQNLEYNKKDRSKLIHDSEELAEKLKSFKSLSTQDSLNHELENLKTYKEKLQSWESENIIPKLNQKIEEKNNEMIILENQIEKFQDRIMKTNQQADLYAKLGLIKKSINTKLDELQKITEKLQNDSRIRQVFPLTQEFQRADLEMDFQKLFINMQKNIAINNKKMHELDRRYTNALYNLNTIEKDLQDNQKSKEKVIQLLSENLPEDCTIDEYNDVLEETELSYKTALENLKMHQTTLEFNRKALEIAERDSCCYLCSRKFENESFKSKLLQELKTKTDANFEKTLKDTVQNEKEYLHSLRLLEKHIITLNSINEKIDNSQKCLEKAKEETKTSKSKLDELEVDSTKLKDEKELAESEIRPLIEKFTYLEKELKDLENSSKTISEELSIYNTSEDGIQTVDELRDQQRKMNDSLRELRKTISDLQMEKDEKVRENSRMINLIKEKELTVSEIESSLTQKQNIDDSIRSKRENINDIDSRVKELEARIISLKNKKDEAQSVLDKVKNERDIQVRNKQKTVADINRLIDRFQTIYNEVVDFEAKGFDELQTTIKELELNKAQMLELKEQLDLKSNEVNEEKRKLADSNNEEKNLKQNLELIELKSQLQHIESEISRLDVQNAEAERDKYQEESLRLRTRFEKLSSENAGKLGEMKQLQNQIDSLTHQLRTDYKDIEKNYHKEWVELQTRSFVTDDIDVYSKALDSAIMKYHGLKMQDINRIIDELWKRTYSGTDIDTIKIRSDEVSSTVKGKSYNYRVVMYKQDVELDMRGRCSAGQKVLASIIIRLALSETFGANCGVIALDEPTTNLDEENIESLAKSLHNIINMRRHQKNFQLIVITHDEKFLGHMNAAAFTDHFFKVKRDDRQKSQIEWVDINRVTY
chain 2: MEHVDSDFAPIRRSKKVVDSDKIVKAISDDLEQKNFTVLRKLNLVPIKKSVSSPKVCKPSPVKERVDHVFYQKFKSMALQELGTNYLSISYVPSLSKFLSKNLRSMKNCIVFFDKVEHIHQYAGIDRAVSETLSLVDINVVIIEMNDYLMKEGIQSSKSKECIESMGQASYSGQLDFEASEKPSNHTSDLMMMVMRKINNDESIDHIVYFKFEQLDKLSTSTIIEPSKLTEFINVLSVLEKSNNIAFKVLIYSNNVSISSLLSTSLKKKLNTKYTVFEMPILTCAQEQEYLKKMIKFTFDSGSKLLQSYNSLVTCQLNNKESNLAIFFEFLKVFPHPFTYLFNAYTEIIVQSRTFDELLDKIRNRLTIKNYPHSAYNFKKNQRLPLKLTRKVHDR

Variants of B1 are the subject of the experiment. Kind of experiment: pull-down (amylose-immobilized MBP-Rif2 bait, Western blot with anti-Rad50 antibody, quantified); three independent blots; mean with SEM; parent: 100; read off a plot. Background: In western blotting, separated proteins are transferred to a membrane and probed.
As to chain 1 K81I, the percent of parent is roughly 16 Relative value.

These data come from article PMC8219681, “Inhibition of MRN activity by a telomere protein motif” (Nature Communications, 2021).
